Experimental data reported in US20030032157A1, “Polypeptides interactive with Bcl-XL” (priority 2001, published 2003).

B1: SEQ ID NO 46 (peptide)
chain: AAMLLDRRGTECDLWINEMSLLHKIVQDVYGTPHPPHS
notes: mRNA display clone from a hypothetical or unknown polypeptide
B2: SEQ ID NO 26 (peptide)
chain: ANLLLLMVPILIAMAFLMLTERKILGYIQPR
notes: mRNA display clone from a known polypeptide
B3: arsenate resistance protein cluster polypeptide (peptide)
chain: AGTQPLILAQFMRVGGDELLHFLLW
notes: Selected clone with insert in reversed orientation relative to the parent mRNA; not further characterized
B4: SEQ ID NO 45 (peptide)
chain: LALAYYSSRQYASALKHIAEIIERGIRQH
notes: as for B1
B5: SEQ ID NO 29 (peptide)
chain: AGVFSAEPSPFPQTRRSMVFARHLREVGDEFRSRHLNSTDDADE
notes: as for B1
B6: SEQ ID NO 21 (peptide)
chain: WERIEERLAYIADHLGFSWTELARAL
notes: as for B2
B7: SEQ ID NO 39 (peptide)
chain: GLAKKSKRNPANLTPP
notes: as for B1
B8: UDP glucoronosyl transferase 2B4 precursor cluster polypeptide (peptide)
chain: VSCWPSYLKYPLSTASASLLATQLKSIA
notes: Selected clone translated from the incorrect reading frame; not further characterized
B9: SEQ ID NO 24 (peptide)
chain: GFLAAEQDIREEIRKVVQSLEQTAREVLTLLQG
notes: as for B2
B10: SEQ ID NO 43 (peptide)
chain: RAPRFIKQILLDLKREIDFNVRLVEYFNPLS
notes: as for B1
B11: cDNA FLJ20617 cluster polypeptide (peptide)
chain: GSLTHHINNIKPSSTR
notes: as for B8
B12: lysosomal pepstatin insensitive protease cluster polypeptide (peptide)
chain: ATWMKTLQGLLDRIQAFPSSPH
notes: Selected clone derived from the 3' UTR of the parent mRNA; not further characterized
B13: SEQ ID NO 49 (peptide)
chain: DWQVLLGKLLWKIDNPGI
notes: as for B1
B14: SEQ ID NO 18 (peptide)
chain: AGEDMEISVKELRTILNRIISKHKDLRT
notes: as for B2
B15: clone w75 (peptide)
chain: RTLQPRLLQNQQQHLPALPIWFLLQWLRLHPL
notes: as for B1
B16: SEQ ID NO 32 (peptide)
chain: CGGRMEDIPCSRVGHIYRKYVPYKVPAGVSLARNLKRVADWM
notes: as for B1
B17: SEQ ID NO 31 (peptide)
chain: MRDLPGHYYETLKFLVGHLKTIADHR
notes: as for B1
B18: SEQ ID NO 38 (peptide)
chain: MAVIINELSQRDSCGPLKISLNNKILVYGNLFSSFTP
notes: as for B1
B19: SEQ ID NO 15 (peptide)
chain: SNELTRAVEELHKLLKEARE
notes: as for B2
B20: transforming growth factor cluster polypeptide (peptide)
chain: FVRSVGWRLQNIGDDMDHAICGHDVRLG
notes: as for B3
B21: SEQ ID NO 13 (peptide)
chain: RGAVFSQDKDVVQEATKVLRNAADNFYINDR
notes: as for B2
B22: SEQ ID NO 42 (peptide)
chain: GVSEAEGTFPLSTFLLGIASRLRSVA
notes: as for B1
B23: SEQ ID NO 34 (peptide)
chain: TSTLPHIRRTR
notes: as for B1
B24: K-ras oncogene cluster polypeptide (peptide)
chain: MDTIKGFDLITNFQVVADALNISLLPNPLATA
notes: as for B12
B25: SEQ ID NO 19 (peptide)
chain: GLREESEEYMAAADEYNRLKQVKQPA
notes: as for B2
B26: SEQ ID NO 40 (peptide)
chain: SSQALRIHQWLHLFSDFTST
notes: as for B1
B27: SEQ ID NO 22 (peptide)
chain: ARGDFAQAAQQLWLALRALGRPLPTSH
notes: as for B2
B28: L-plastin cluster polypeptide (peptide)
chain: SGLRKPTCGSSQR
notes: as for B12
B29: SEQ ID NO 16 (peptide)
chain: TYWNLLPPKRPIKEVLTDIFAKVLEKGWVDSRS
notes: as for B2
B30: MYBPC3 cluster polypeptide (peptide)
chain: EANRKQPKPNNSSTAYYNFTGVSILPSYKP
notes: as for B12
B31: SEQ ID NO 48 (peptide)
chain: LFSVLLRYLADNFLPGGS
notes: as for B1
B32: SEQ ID NO 47 (peptide)
chain: PWQYKPIADLYRGRESRPSAPR
notes: as for B1
B33: SEQ ID NO 14 (peptide)
chain: TGTGAPRFIKEVQELNSALHQSDLIDIYRTLHP
notes: as for B2
B34: SEQ ID NO 30 (peptide)
chain: GLKLATVAASMDRVPKVTPSSAISSIARENHEPERLGLNGIAETT
notes: as for B1
B35: SEQ ID NO 50 (peptide)
chain: GAMEREWAMFLRAASSRIRGGV
notes: as for B1
B36: SEQ ID NO 17 (peptide)
chain: LFTILLTLWTMRCSSTPSG
notes: as for B2
B37: SEQ ID NO 27 (peptide)
chain: LRLNTTVWPTIITPILLTLFLITNRLITTR
notes: as for B2
B38: SEQ ID NO 28 (peptide)
chain: TLYLKLTALAVTFLGLLTALDLNYPT
notes: as for B2
B39: SEQ ID NO 23 (peptide)
chain: GSSKDLAKHIQVVCDGMDLTPKIHDLKPQC
notes: as for B2
B40: SEQ ID NO 36 (peptide)
chain: ILTSPWTTSSGLWPRLQKAAEAFKQLNQP
notes: as for B1

Biological target: T1, human Bcl-XL-GST fusion protein (human, UniProt P08515 1-218 = GST; Q07817 1-211)
T1 construct: Made in E. coli, immobilized on glutathione Sepharose beads; whole entry named; also called Bcl-XL-glutathione S-transferase (GST) fusion protein; GST-BCL-XL
T1 sequence (P08515 1-218, tags or fused parts left off): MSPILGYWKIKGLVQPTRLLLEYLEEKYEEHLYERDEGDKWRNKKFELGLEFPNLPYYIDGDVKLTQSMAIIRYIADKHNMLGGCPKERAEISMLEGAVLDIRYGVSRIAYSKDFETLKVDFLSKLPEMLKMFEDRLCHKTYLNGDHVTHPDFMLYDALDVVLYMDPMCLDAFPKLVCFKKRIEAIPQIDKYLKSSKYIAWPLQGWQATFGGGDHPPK
Experiment: mRNA display selection on immobilized Bcl-XL-GST
Experimental: Detection of a polypeptide binding to a Bcl-XL-glutathione S-transferase (GST) fusion protein was carried out as follows. Twenty microliters of glutathione Sepharose 4B slurry (AP Biotech) was aliquoted to a microcentrifuge tube and washed with PBS. The Bcl-XL-GST fusion protein (60 μg), prepared as describe above, was added and allowed to bind to the Sepharose beads for 1 hr at 4° C. The beads were then re-washed in selection buffer (50 mM Tris-HCL pH 7.5, 150 mM KCl, 0.05% Triton X-100, 0.5 mg/ml BSA, and 0.1 mg/ml salmon sperm DNA). The Bcl-XL-GST beads were resuspended in 100 μl of selection buffer (approximately 11.5 μM Bcl-XL) and ³⁵S-labeled mRNA display construct or free peptide was added (approximately 10-60 nM) and incubated on a rotator for 1 hr at 4° C. The reaction was then transferred to a microcentrifuge column (BioRad) and unbound mRNA display constructs or free peptides were removed by a 10 sec spin at 1,000 rpm. The Sepharose beads were then washed three times with 500 μl of selection buffer. The extent of binding between the Bcl-XL-GST fusion protein and the mRNA display constructs or free peptides was determined by scintillation counting each fraction, including the recovered beads.
A human Bcl-XL-GST fusion protein was immobilized on Sepharose beads as described above for the binding assay and incubated with the mRNA display library. For the first round of selection, the input was approximately 0.06 pmol of each of the four source labeled libraries from human tissues (kidney, liver, bone marrow, and brain), which were mixed prior to selection. For subsequent rounds of selection, the input of each of the four source labeled libraries ranged from 0.25 to 0.92 pmol in total. After washing the beads of any unbound nucleic acid-protein fusion library members, the cDNA strand of the bound fusions were recovered in three elutions with 100 μl of 0.1N KOH. Eluates were subsequently neutralized by the addition of 2 μl of 1N Tris-HCL pH 7 and 8 μl of 1N HCL. A small scale PCR optimization was performed with the eluate to determine the number of cycles required to produce a strong signal without overamplification (typically 18-28 cycles). The library was then regenerated by PCR using the remainder of the eluate.

Binder	binding result
VVDVPDFIVWLEEAVSDLHRAL [SEQ ID NO 61]	binds
B1	binds
QRRGNEFQLRDLADAWDLSSRSRQRGWQMPNCRSRRGPG [SEQ ID NO 62]	binds
B2	binds
RPVSFCGAVWTLNRAIGRHFVRGSR [SEQ ID NO 57]	binds
B3	binds
B4	binds
B5	binds
CREQAELTGLRLASLGLKFNKIVHSSMTRAIET [SEQ ID NO 53]	binds
B6	binds
B7	binds
B8	binds
B9	binds
B10	binds
B11	binds
EQASVKYVILDMYRALLTLMNTSTAT [SEQ ID NO 55]	binds
B12	binds
B13	binds
B14	binds
B15	binds
B16	binds
GQGTLWGSGMEAWLATVLKALPWHPTYQLEP [SEQ ID NO 59]	binds
B17	binds
B18	binds
B19	binds
B20	binds

Binder	binding result
B21	binds
B22	binds
B23	binds
B24	binds
B25	binds
HAVVARLLHIGAIMFQRLDFIEQLSAPPA [SEQ ID NO 58]	binds
VHNFGRHWGLPLSFLLNYPLFLSP [SEQ ID NO 51]	binds
IAQATKATIDKWNCIKLKIFYTSKKEAS [SEQ ID NO 60]	binds
B26	binds
B27	binds
B28	binds
B29	binds
GTRISDMLKLIADTWQRNCCPA [SEQ ID NO 54]	binds
B30	binds
EDLESVLIRLINWAKGSPIP [SEQ ID NO 56]	binds
B31	binds
B32	binds
B33	binds
B34	binds
B35	binds
B36	binds
ASMAPVGRDAETLQKQKETIKAFLKKLEALMASNDNANKT [SEQ ID NO 52]	binds
B37	binds
B38	binds
B39	binds
B40	binds
